The values that follow come from patent US20130040360.

The data set relates to full-length rat proMMP9(1-708) (SEQ ID NO:11).
Chain of full-length rat proMMP9(1-708) (SEQ ID NO:11) (chain, as listed by the source): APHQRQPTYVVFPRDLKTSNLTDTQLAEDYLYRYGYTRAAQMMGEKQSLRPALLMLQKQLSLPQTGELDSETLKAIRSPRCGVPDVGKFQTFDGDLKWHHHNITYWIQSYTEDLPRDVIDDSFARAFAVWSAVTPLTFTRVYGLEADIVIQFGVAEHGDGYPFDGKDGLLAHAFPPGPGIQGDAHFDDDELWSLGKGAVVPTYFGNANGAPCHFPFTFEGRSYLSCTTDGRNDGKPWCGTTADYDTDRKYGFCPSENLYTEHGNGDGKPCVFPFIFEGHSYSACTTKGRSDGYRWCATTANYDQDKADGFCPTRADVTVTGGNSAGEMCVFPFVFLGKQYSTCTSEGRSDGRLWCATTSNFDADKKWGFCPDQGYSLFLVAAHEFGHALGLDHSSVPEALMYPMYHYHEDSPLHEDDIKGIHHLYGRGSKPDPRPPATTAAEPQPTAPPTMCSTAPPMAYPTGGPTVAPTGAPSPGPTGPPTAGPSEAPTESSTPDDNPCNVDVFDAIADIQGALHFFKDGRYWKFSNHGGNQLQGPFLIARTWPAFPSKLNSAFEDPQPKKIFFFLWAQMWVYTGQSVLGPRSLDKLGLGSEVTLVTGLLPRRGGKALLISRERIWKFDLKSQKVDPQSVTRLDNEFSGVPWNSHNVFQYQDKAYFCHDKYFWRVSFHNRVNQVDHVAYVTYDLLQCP

Chain of human catalytic MMP3, MMP3(100-265) (SEQ ID NO:8) (chain, as listed by the source): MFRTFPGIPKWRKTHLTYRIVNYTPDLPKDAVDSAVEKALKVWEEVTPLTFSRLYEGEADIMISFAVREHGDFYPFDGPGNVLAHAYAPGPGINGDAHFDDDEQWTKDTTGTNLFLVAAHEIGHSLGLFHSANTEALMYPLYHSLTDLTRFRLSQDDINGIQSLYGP

As for “human catalytic MMP3, MMP3(100-265) (SEQ ID NO:8)”, the “proteolytic conversion of proMMP9 to catalytic MMP9” value was “full-length rat proMMP9(1-708) (SEQ ID NO:11) converted to catalytic rat MMP9 by catalytic MMP3”.
